Measurements as given in US20260193309A1 (BRIGHAM AND WOMEN S HOSPITAL, published 2026).
Residue numbers refer to the chain shown, from its start. Names may count otherwise.

B1: human CEACAM1 IgV domain, wild type (tagless hCEACAM1 IgV domain) (receptor)
chain: QLTTESMPFNVAEGKEVLLLVHNLPQQLFGYSWYKGERVDGNRQIVGYAIGTQQATPGPANSGRETIYPNASLLIQNVTQNDTGFYTLQVIKSDLVNEEATGQFHVYP
notes: also called hCEACAM1 WT; WT
B2: hCEACAM1 IgV domain mutant V39A (receptor)
chain: B1 chain with V39A
notes: also called hCEACAM1 V39A
B3: hCEACAM1 IgV domain mutant I91A (receptor)
chain: B1 chain with I91A
notes: also called hCEACAM1 I91A
B4: hCEACAM1 IgV domain variant D40R (receptor)
chain: B1 chain with D40R
notes: also called hCEACAM1 D40R
B5: hCEACAM1 IgV domain variant Q89H (receptor)
chain: B1 chain with Q89H
notes: also called tagless Q89H; hCEACAM1 Q89H
B6: hCEACAM1 IgV domain variant R38D (receptor)
chain: B1 chain with R38D
notes: also called tagless R38D; hCEACAM1 R38D
B7: hCEACAM1 IgV domain variant R38D/G41S (receptor)
chain: B1 chain with R38D, G41S
notes: also called R38D G41S monomer

How the values were obtained:
[1] = biological target: the molecule itself; test: PDB-PISA analysis of the dimer crystal structure
[2] = biological target: the molecule itself; test: DSF and SEC-MALS (FIGS. 14B and 14C)
[3] = biological target: B1; test: ELISA binding assay, tagless hCEACAM1 IgV protein added to WT hCEACAM1; signal given as fold response relative to WT
[4] = biological target: B1; test: PDB-PISA analysis of the dimer crystal structure
[5] = biological target: B1; test: structure of the heterodimer (FIG. 10C)

Binder: B1
PDB dimer formation score (PDB-PISA) [1]: 0.89

Binder: B2
binding result [2]: binds

Binder: B3
binding result [2]: binds

Binder: B4
PDB dimer formation score (PDB-PISA) [1]: 0.93

Binder: B5
binding result [3]: binds | PDB dimer formation score (PDB-PISA) [1]: 0.96

Binder: B6
PDB dimer formation score (PDB-PISA) [4]: 0.91

Binder: B7
binding result [5]: binds
